Laboratory results from the supplement of paper PMC10567573.

B1: IQUB (parent)
chain: CRNCINLQNEAQKRESFLKYKCLL

Variants of: B1
Test: protein stability index of a GFP-peptide fusion (GPS, HEK-293T) (PSI 1-6); higher = more stable
Conditions: c terminus: a fixed tail appended
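Note: lentivirally expressed fusions sorted by FACS into six bins by GFP to DsRed ratio, PSI derived from sequencing read proportions per bin multiplied by bin number.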

Variant | protein stability index
CRNCINLQNEAQKRESFLKPKCLL [Y20P] | 1.89
CRNCINLQNEAQKRESFLKSKCLL [Y20S] | 1.5
CRNCINLQNEAQKRESFLKMKCLL [Y20M] | 2.66
CRNCINLQNEAQKRESFLKGKCLL [Y20G] | 3.06
CRNCINLQNEAQKRESFLKFKCLL [Y20F] | 1.66
CRNCINLQNEAQKRESFLKNKCLL [Y20N] | 2.96
CRNCINLQNEAQKRESFLKTKCLL [Y20T] | 2.14
CRNCINLQNEAQKRESFLKDKCLL [Y20D] | 2.11
CRNCINLQNEAQKRESFLKQKCLL [Y20Q] | 2.96
CRNCINLQNEAQKRESFLKAKCLL [Y20A] | 2.34
CRNCINLQNEAQKRESFLKEKCLL [Y20E] | 2.17
CRNCINLQNEAQKRESFLKLKCLL [Y20L] | 2.14
CRNCINLQNEAQKRESFLKHKCLL [Y20H] | 1.69
CRNCINLQNEAQKRESFLKYKCLA [L24A] | 2.56
CRNCINLQNEAQKRESFLKYKCLQ [L24Q] | 1.74
CRNCINLQNEAQKRESFLKYKCLT [L24T] | 1.8
CRNCINLQNEAQKRESFLKYKCLR [L24R] | 1.82
CRNCINLQNEAQKRESFLKYKCLW [L24W] | 1.46
CRNCINLQNEAQKRESFLKYKCLK [L24K] | 2.53
CRNCINLQNEAQKRESFLKYKCLH [L24H] | 2.19
CRNCINLQNEAQKRESFLKYKCLD [L24D] | 2.81
CRNCINLQNEAQKRESFLKYKCLI [L24I] | 1.75
CRNCINLQNEAQKRESFLKYKCLF [L24F] | 1.82
CRNCINLQNEAQKRESFLKYKCLY [L24Y] | 1.69

Variant | protein stability index
CRNCINLQNEAQKRESFLKYKCLN [L24N] | 1.86
CRNCINLQNEAQKRESFLKYKCLP [L24P] | 2.22
CRNCINLQNEAQKRESFLKYKCLS [L24S] | 3.46
CRNCINLQNEAQKRESFLKYKCLE [L24E] | 1.65
CRNCINLQNEAQKRESFLKYKCLG [L24G] | 1.37
CRNCINLQNEAQKRESFLKYKCLC [L24C] | 3.57
CRNCINLQNEAQKRESFLKYKCLM [L24M] | 1.79
CRNCINLQNEAQKRESFLKYKCLV [L24V] | 1.27
CRNCINLQNEAQKTESFLKYKCLL [R14T] | 1.84
CRNCINLQNEAQKWESFLKYKCLL [R14W] | 1.86
CRNCINLQNEAQKSESFLKYKCLL [R14S] | 2.56
CRNCINLQNEAQKQESFLKYKCLL [R14Q] | 1.89
CRNCINLQNEAQKPESFLKYKCLL [R14P] | 2.35
CRNCINLQNEAQKYESFLKYKCLL [R14Y] | 2.43
CRNCINLQNEAQKVESFLKYKCLL [R14V] | 2.36
CRNCINLQNEAQKRESFLKYRCLL [K21R] | 2.53
CRNCINLQNEAQKRESFLKYFCLL [K21F] | 1.74
CRNCINLQNEAQKRESFLKYHCLL [K21H] | 2.47
CRNCINLQNEAQKRESFLKYWCLL [K21W] | 1.78
CRNCINLQNEAQKRESFLKYECLL [K21E] | 1.75
CRNCINLQNEAQKRESFLKYPCLL [K21P] | 1.74
CRNCINLQNEAQKRESFLKYICLL [K21I] | 2.28
CRNCINLQNEAQKRESFLKYCCLL [K21C] | 1.77
CRNCINLQNEAQKRESFLKYMCLL [K21M] | 1.76

Variant | protein stability index
CRNCINLQNEAQKRESFLKYDCLL [K21D] | 2.06
CRNCINLQNEAQKRESFLKYGCLL [K21G] | 2.7
CRNCINLQNEAQKRESFLKYACLL [K21A] | 1.16
CRNCINLQNEAQKRESFLKYQCLL [K21Q] | 2.28
CRNCINLQNEAQKRESFLKYNCLL [K21N] | 1.47
CRNCINLQNEAQKRESFLKYLCLL [K21L] | 1.38
CRNCINLQNEAQKRESFLKYTCLL [K21T] | 1.58
CRNCINLQNEAQKRESFLKYSCLL [K21S] | 1.94
CRNCINLQNEAQKRESFLKYYCLL [K21Y] | 1.51
CRNCINLQNEAQKRESFLKYVCLL [K21V] | 3.66
CRNCINLQNEAQKRESFRKYKCLL [L18R] | 1.65
CRNCINLQNEAQKRESFDKYKCLL [L18D] | 1.63
CRNCINLQNEAQKRESFSKYKCLL [L18S] | 1.39
CRNCINLQNEAQKRESFGKYKCLL [L18G] | 2.9
CRNCINLQNEAQKRESFHKYKCLL [L18H] | 2.23
CRNCINLQNEAQKRESFKKYKCLL [L18K] | 2.15
CRNCINLQNEAQKRESFQKYKCLL [L18Q] | 1.85
CRNCINLQNEAQKRESFPKYKCLL [L18P] | 2.11
CRNCINLQNEAQKRESFIKYKCLL [L18I] | 1.51
CRNCINLQNEAQKRESFFKYKCLL [L18F] | 2.79
CRNCINLQNEAQKRESFEKYKCLL [L18E] | 2.25
CRNCINLQNEAQKRESFVKYKCLL [L18V] | 1.88
CRNCINLQNEAQKRESFCKYKCLL [L18C] | 2.6
CRNCINLQNEAQKRESFAKYKCLL [L18A] | 1.57

Variant | protein stability index
CRNCINLQNEAQKRESFNKYKCLL [L18N] | 2.27
CRNCINLQNEAQKRESFWKYKCLL [L18W] | 1.96
CRNCINLQNEAQKRESFTKYKCLL [L18T] | 1.88
CRNCINLQNEAQKRESFMKYKCLL [L18M] | 2.72
CRNCINLQNEAQKRESFYKYKCLL [L18Y] | 1.38
CRNCINLQNEAQKREPFLKYKCLL [S16P] | 2.2
CRNCINLQNEAQKRELFLKYKCLL [S16L] | 1.99
CRNCINLQNEAQKREEFLKYKCLL [S16E] | 2.15
CRNCINLQNEAQKREGFLKYKCLL [S16G] | 2.93
CRNCINLQNEAQKREVFLKYKCLL [S16V] | 2.4
CRNCINLQNEAQKREHFLKYKCLL [S16H] | 2.25
CRNCINLQNEAQKREAFLKYKCLL [S16A] | 2.05
CRNCINLQNEAQKRERFLKYKCLL [S16R] | 2.62
CRNCINLQNEAQKREFFLKYKCLL [S16F] | 2.23
CRNCINLQNEAQKREWFLKYKCLL [S16W] | 1.69
CRNCINLQNEAQKREIFLKYKCLL [S16I] | 1.59
CRNCINLQNEAQKREQFLKYKCLL [S16Q] | 2.06
CRNCINLQNEAQKREKFLKYKCLL [S16K] | 1.88
CRNCINLQNEAQKRECFLKYKCLL [S16C] | 1.53
CRNCINLQNEAQKRETFLKYKCLL [S16T] | 1.59
CRNCINLQNEAQKRENFLKYKCLL [S16N] | 1.84
CRNCINLQNEAQKREDFLKYKCLL [S16D] | 2.11
